# Measurements: patent US20190263918A1 (SHANGHAI JIAO TONG UNIVERSITY SCHOOL OF MEDICINE, published 2019)
# Changes are numbered by the printed parent chain.
# B1: Anti-mDR5-hIgG2 (antibody)
# heavy: QIQLQESGPGLVKPAQSLSLTCSITGFPITAGGYWWTWIRQFPGQKLEWMGYIYSSGSTNYNPSIKSRISITRDTAKNQFFLQLNSVTTEEDTAIYYCARAGTSYSGFFDSWGQGTLVTVSSASTKGPSVFPLAPCSRSTSESTAALGCLVKDYFPEPVTVSWNSGALTSGVHTFPAVLQSSGLYSLSSVVTVPSSNFGTQTYTCNVDHKPSNTKVDKTVERKCCVECPPCPAPPVAGPSVFLFPPKPKDTLMISRTPEVTCVVVDVSHEDPEVQFNWYVDGVEVHNAKTKPREEQFNSTFRVVSVLTVVHQDWLNGKEYKCKVSNKGLPAPIEKTISKTKGQPREPQVYTLPPSREEMTKNQVSLTCLVKGFYPSDIAVEWESNGQPENNYKTTPPMLDSDGSFFLYSKLTVDKSRWQQGNVFSCSVMHEALHNHYTQKSLSLSPGK
# light: DIQVTQSPSLLSASFGDKVTINCLVTQDITYYLSWYQQKSGQPPTLLIYNGNSLQSGVPSRFSGQYSGRTFTLSLSSLEPEDAGTYYCLQHYSVPFTFGGGTRLEIKRTVAAPSVFIFPPSDEQLKSGTASVVCLLNNFYPREAKVQWKVDNALQSGNSQESVTEQDSKDSTYSLSSTLTLSKADYEKHKVYACEVTHQGLSSPVTKSFNRGEC
# notes: Chimeric anti-murine DR5 antibody, heavy chain constant region G2; also called Anti-mDR5-IgG2
# B2: Anti-mDR5-hIgG1(V11) (antibody)
# heavy: QIQLQESGPGLVKPAQSLSLTCSITGFPITAGGYWWTWIRQFPGQKLEWMGYIYSSGSTNYNPSIKSRISITRDTAKNQFFLQLNSVTTEEDTAIYYCARAGTSYSGFFDSWGQGTLVTVSSATTKGPSVFPLAPSSKSTSGGTAALGCLVKDYFPEPVTVSWNSGALTSGVHTFPAVLQSSGLYSLSSVVTVPSSSLGTQTYICNVNHKPSNTKVDKRVEPKSCDKTHTCPPCPAPELLGDDSVFLFPPKPKDTLMISRTPEVTCVVVDVSDEDGEVKFNWYVDGVEVHNAKTKPREEQYNSTYRVVSVLTVLHQDWLNGKEYKCKVSNKALPRPIEKTISKAKGQPREPQVYTLPPSRDELTKNQVSLTCLVKGFYPSDIAVEWESNGQPENNYKTTPPVLDSDGSFFLYSKLTVDKSRWQQGNVFSCSVMHEALHNHYTQKSLSLSPGK
# light: B1 light
# notes: Chimeric anti-murine DR5 antibody, heavy chain constant region V11(H1)
# B3: Anti-mDR5-IgG2(V11) (antibody)
# heavy: QIQLQESGPGLVKPAQSLSLTCSITGFPITAGGYWWTWIRQFPGQKLEWMGYIYSSGSTNYNPSIKSRISITRDTAKNQFFLQLNSVTTEEDTAIYYCARAGTSYSGFFDSWGQGTLVTVSSASTKGPSVFPLAPCSRSTSESTAALGCLVKDYFPEPVTVSWNSGALTSGVHTFPAVLQSSGLYSLSSVVTVPSSNFGTQTYTCNVDHKPSNTKVDKTVERKCCVECPPCPAPELLGDDSVFLFPPKPKDTLMISRTPEVTCVVVDVSDEDGEVKFNWYVDGVEVHNAKTKPREEQYNSTYRVVSVLTVLHQDWLNGKEYKCKVSNKALPRPIEKTISKAKGQPREPQVYTLPPSRDELTKNQVSLTCLVKGFYPSDIAVEWESNGQPENNYKTTPPVLDSDGSFFLYSKLTVDKSRWQQGNVFSCSVMHEALHNHYTQKSLSLSPGK
# light: B1 light
# notes: Chimeric anti-murine DR5 antibody, heavy chain constant region V11(H2), i.e. JAC1
# B4: Anti-mDR5-hIgG1-GASDALIE (antibody)
# heavy: B2 heavy with G241A, D242G, D243P, S244D, D273H, G276P, R335L, I337E
# light: B1 light
# B5: Anti-hCD40-hIgG1(V11) (antibody)
# heavy: not shown
# light: DIQMTQSPSSVSASVGDRVTITCRASQGIYSWLAWYQQKPGKAPNLLIYTASTLQSGVPSRFSGSGSGTDFTLTISSLQPEDFATYYCQQANIFPLTFGGGTKVEIKRTVAAPSVFIFPPSDEQLKSGTASVVCLLNNFYPREAKVQWKVDNALQSGNSQESVTEQDSKDSTYSLSSTLTLSKADYEKHKVYACEVTHQGLSSPVTKSFNRGEC
# notes: Human anti-human CD40 antibody, heavy chain constant region V11(H1)
# B6: Anti-hCD40-hIgG2-SE (antibody)
# heavy: not shown
# light: B5 light
# notes: Human anti-human CD40 antibody, heavy chain constant region G2-SE
# B7: Anti-hCD40-hIgG2-HDPG (antibody)
# heavy: not shown
# light: B5 light
# notes: Human anti-human CD40 antibody, heavy chain constant region G2-HDPG, i.e. JAC4; also called anti-human CD40 antibody comprising JAC4
# B8: Anti-hCD40-hIgG2-SELF (antibody)
# heavy: not shown
# light: B5 light
# notes: Human anti-human CD40 antibody, heavy chain constant region G2-SELF, i.e. JAC3; also called anti-human CD40 antibody comprising JAC3
# Molecular target: T1, murine DR5 on MC38 cells (murine, UniProt Q9QZM4 53-381)
# T1 construct: whole, on cells; also called mDR5
# T1 sequence (looked up): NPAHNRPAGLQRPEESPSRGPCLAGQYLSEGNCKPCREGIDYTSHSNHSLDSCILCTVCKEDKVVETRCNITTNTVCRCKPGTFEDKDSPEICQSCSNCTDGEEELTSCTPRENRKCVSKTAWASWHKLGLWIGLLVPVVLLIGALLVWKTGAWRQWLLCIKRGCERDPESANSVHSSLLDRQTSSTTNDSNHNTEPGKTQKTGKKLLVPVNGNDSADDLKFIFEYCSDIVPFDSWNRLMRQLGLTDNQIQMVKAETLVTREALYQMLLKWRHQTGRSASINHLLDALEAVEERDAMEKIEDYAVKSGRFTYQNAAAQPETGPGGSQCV
# Experiment: flow cytometry on MC38 cells, FITC goat anti-human antibody
# Protocol: To detect the DR5 binding capacity of different anti-DR5 antibodies, MC38 cells were resuspended in ice-cold FACS buffer (PBS+0.5% FBS+2 mM EDTA+0.1% NaN3), to which 3.16-fold gradient dilutions of control and anti-DR5 antibody at concentrations ranging from 2 ng to 20 µg/mL were added, and the reaction was incubated at room temperature for 15 minutes. The system was washed twice with ice-cold FACS buffer, then flow-cytometry stained using FITC-labeled goat anti-human antibody (VECTOR FI-3080) on ice for 25 minutes in dark, which was then washed twice with FACS buffer and analyzed by flow-cytometry. For the antibodies, the DR5 binding capacity was positively correlated to FITC mean fluorescence intensity (MFI).
row,Binder,binding result
1,B1,binds
2,B2,binds
3,B3,binds
4,B4,binds

# Molecular target: T2, human FcγRIIA-R131 extracellular domain protein (human, UniProt P12318 34-217)
# T2 construct: extracellular domain; SPR: His-tagged, immobilised; ELISA: biotinylated; also called hFcγRIIA-R131; CD32a
# T2 sequence (looked up): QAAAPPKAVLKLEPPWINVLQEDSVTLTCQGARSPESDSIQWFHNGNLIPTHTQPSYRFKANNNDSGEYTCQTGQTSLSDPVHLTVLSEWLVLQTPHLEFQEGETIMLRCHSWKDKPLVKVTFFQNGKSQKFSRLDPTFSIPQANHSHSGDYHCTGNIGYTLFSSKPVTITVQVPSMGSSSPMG
# Experiment: ELISA: plate coated with the anti-human CD40 antibody, biotinylated human FcγRIIA-R131 extracellular domain, streptavidin-HRP, A650 [lower FcγRIIA-R131 panel]
# Protocol: The ELISA plate was coated with 100 μL antibody at an appropriate concentration overnight, supernatant being discarded. The plate was blocked with 1% BSA in PBS for 2 hours, followed by washing with PBST (PBS with 0.05% Tween 20). Then, biotinylated FcγR extracellular domain protein (Sino Biologic Inc., Beijing China) at a concentration as appropriate was added and incubated at room temperature for 1 hour, supernatant being discarded, followed by PBST wash. Streptavidin-HRP (BD Biosciences) was added and incubated at room temperature for 1 hour for detection of biotin protein. After removal of supernatant, developing solution was added to react for 20-40 minutes, and absorbance was determined at 650 nm (A650).
row,Binder,binding result
1,B5,binds
2,B6,binds
3,B7,binds
4,B8,binds
